Reference: the domain aggregation screens of Martell et al. (2025)

Assay: soluble fraction after stress (log2 fold change); higher = more stays soluble; pooled small domains, quantitative proteomics
Details: stress: 50 degC
How it was run: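 The stress applied to every library was 50°C. These custom libraries of small protein domains were pooled and measured at high throughput with quantitative proteomics as the read-out. Aggregation propensity is expressed as the base-two logarithm of the fold change in how much of each protein remains soluble. The higher the value, the more of that protein stays in solution.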

Row | Sequence | soluble fraction (log2)
1 | HMEFQVKVIVSSLNIRSGPGTSYDTLGTVTKGDIFTIVETNSDSTWGKMQSGGWISIKDAYVKK | -0.688
2 | HMEVLEGFIEDIKFKSEESGYTVAKLNNRNKSIVIVGTMPFISEGQHVKLTGEWKIHQKFGAQFNVKELEE | -0.347
3 | HMVNVLKNSTVIDLVKNNLSDALIISLIRRAKVDFSLMTDDVIELSGKGVSPAVIMEMRQAMIRQASEIQN | -0.145
4 | HMNTISYTELIKQIDEGNVEKVEMTVGSTSVKVKLQGQEEEKKAIVPNTQAFVELIQEKTLEGNQIDLKQN | -0.0333
5 | HMENFKVFMKAVQEVSPVPVRFDEISSGAKGYYSNTEKEIVIQNGMSESQTMKTGIHEVTHAMLHDRDF | 0.113
6 | HMSTEDYLKTIYILESQQGVHGSDVARMLKVTRPTVSIALKALEQEGYVWMDESRLVHLTDSGLQIAKDT | -1.12
7 | HMAEPYDERKVMEQMIPKGKNTIVAHLGHLKDHGETGYLQEALSYLRERESELGFDLKEVRALVHN | 0.251
8 | HMVKSYEVPDVSNLTVLEAEAKLQEMGFEIDEEQKEISSSDIESGRVVKTSPQAGSKRKEGAIITLYVSSG | 0.163
9 | HMKFSVEEQFKKSFPKNTYETFSETSLKGVYEVYNGKQVYYYLPVNDVLLLGSIVTKDGKNLTQESNSKK | -0.0811
10 | HMRSSNEAVSQRRDKILDYISATGRTSTEIVAKEFGVSVMTARRDLLYLMEKRLISKSSSGLFKVDNN | -2.42
11 | HMSEVIYVAEDNVGQRIDVFLVNKLVDASRANIQKNIVDGVILVNNKNVKANYKLRLGDVVEIRTQ | 0.156
12 | HMGEVQALIPGLVSKLFVVEGESVKIGQKLIILEAMKMENEIASPINGTIKKIYIKSGDKIDKGSIIMEIT | -0.336
13 | HMTVKEVGYDTFLTMLDKKEIKQVQVEDNQIIFSDNADPVNYYKTGVFNDPDLVNRLQDAGVEFG | 0.312
14 | HMGKQPLYEQLVDLLRDRIENDMETGELLPSERKLAHHFGLSRTTVRLAMDRLETLGLITRVHGKDTFVAE | -1.17
15 | HMNTYVLPDALKSQLSVEDTGMLTKQLQALPETLAEGVLDSLSQMLSKNTLQNPVGWMLAVMKRAREGNFN | -0.00363
16 | HMIADPAKPDWTTILAPVTTGTTVTHKTFGQGTVTKLDKTKKYLTVSFAAGQKNFVFPNAFIDGFLK | 0.203
17 | HMIHQIPVNVQKIRQIIGINLNENDYLNYLAKLGFVIDEGLIIVPSFRSDVKTQNDLAEEIARV | -0.444
18 | HMANPRLEYFLSNITPDWNEFSPELKNQLLIENADPYKLEQYILQVSPDMYIEEQNAPGTVRQMAGDITG | 0.09
19 | HMDEVPMPPEYQYLRVGSRVHHATFGWGKVTRLSQPWPQTRAEVFFENIGPKKLVLAHAHLTMD | -0.727

Row | Sequence | soluble fraction (log2)
20 | HMNHLLYPNPANNFIWIKNSTSNTAVIYNLQGVMSKVEVSEEGKIDISRFSPGLYMIKQGERIYKFTIA | -1.34
21 | HMFYNDLINFDVFRDSRKIGKIENINSRLPQPVFEIMYDSRIVLIPIHEDFIRKIDKVNNIIYLDIPDGLL | -1.72
22 | HMDTFSVAIGTKTPDGSSVGEVKTISRDELLLLEDEVAEDPTKEIIFTGGTKDSAQAALDGWIDYNTNLAS | 0.00318
23 | HMEWLENIKKLKKEKGLTNESLSEKSGISVGTLNKLLSGATTDPKLSTLRPLADALEVSLDELLAI | 0.166
24 | HMGLSARIAQRIHGLRTAQRMSLEALAARSGVSRSMISLIERNEASPTAVVLEKIATGLNVVLAALFDTP | -1.29
25 | HMKQTFGAMLAALRKEKGMTQLELAEQMGVTDKAVSKWERDLSFPDVTSLPRLAEILEVSVDELMQ | -0.0444
26 | HMDIEITIPPEAKELDVSKILISGNIITDEQEFLDYLKQNNVAAFKDGNYKLNKNMTTEEIVNQIK | 0.498
27 | HMEIYIDGNKYVGELRNGKPNGRGTITYTGDGSKYVGEWKNGKRYGRGKMAYTNGTTKEGVWKDDEFLYAT | 0.0597
28 | HMNILNFSENIIKLRHKKGITQEELADFVGVTKASVSKWETKQSLPDIMLLPRLAAYFDVTVDELLGYEP | 0.0236
29 | HMRSSAATMFGRIALKNKLVDEATLKKVMSELPAGADLGAVLVKQGLISEQHAEAIQKKITAHMKSAP | 0.273
30 | HMQDYISAEEAKSAALSASQVDSAGAAFSAAELGEKNGIPYYEVAFTADGLEYRYAIDAQTGTVIESSSSG | 0.0366
31 | HMDDGNHTEYIVLEKAKFYDEAGEYEEGRDLVLSFDKYQDNWKLVYTLGVFNKKLNNLEEARKYYKQALE | -0.0519
32 | HMRVGISRNSGAAGIAVWLTQKLGRPVAKTEEIVHILKNWVDDQYEAGRVTNIGDGELWSVYKQMEAEE | -0.359
33 | HMGQLTDKQILLFSGKLAYEPTFASKYSKAGESYDDFIIRISGDLTDPKKIKEYSPYLKELGF | -0.161
34 | HMSFGWETLEGKEGVTDTDLHPSGWVKVGDEKIFVVSQGEFLGKGTDIVVVSVDGNRVVVKELI | -0.694
35 | HMVKVEVKPNVLQWVIKRMDNFDRLKDQFPNIDKWINQESQPTLKQLEKLAKMTAVPLGYFFLPNPPEEK | -0.183
36 | HMDDHKQHLIDFYHSRKRMPTYTEMMALFGYKSKNAVARLVEKMIDAGIVTKDKLGKLLPTTLFDSVPL | 0.0577
37 | HMIAITVGSKVRVKAGATFSDGTKPFTEVYNTVYDVQLLSRNGKEARIGIGEQWTGWMYISDLYPADQ | -0.359
38 | HMQPLGHDLTERELDVLALMVTGMNNSEIADKLVVSRSTIKYHVSNILSKLQATSRTEAVAYALQQNLVH | -0.469
